Assay results taken from article PMC4270787 (PLoS ONE, 2014).

Tests used:
Experiment in all cases: radioligand binding
[1] = target: acetylcholine-binding protein from Aplysia californica (A. californica)
[2] = target: T1, acetylcholine-binding protein from L. stagnalis (L. stagnalis, UniProt P58154 20-229); details: both partners purified
T1 construct: also called L. stagnalis AChBP

[3] = target: T2, human neuronal α7 nicotinic acetylcholine receptor (human, UniProt P36544 23-502); details: one partner purified
T2 construct: also called human α7 nAChR; α7 nAChR

[4] = target: T3, T. californica muscle-type nicotinic acetylcholine receptor (T. californica, UniProt P02710 25-461; P02712 25-493; P02714 18-506; P02718 22-522); details: one partner purified
T3 construct: also called T. californica nAChR; Torpedo nAChR

Row | Molecule | IC50 [1] [µM] | IC50 [2] [µM] | IC50 [3] [µM] | IC50 [4] [nM]
1 | PLA2 vurtoxin from V. ursinii venom (from UniProt F8QN54 17-138) (enzyme) | > 30 | – | – | –
2 | PLA2 CM-II from N. kaouthia venom (from UniProt P00596 28-146) (enzyme) | > 100 | – | – | –
3 | PLA2 vurtoxin from V. ursinii venom (enzyme) SLLEFGMMILEETGKNPLTSYSFYGCYCGVGGKGTPKDATDRCCFVHDCCYGNLPDCNPKIDRYKYHRKNGAIVCGKGTSCENRICECDRAAAICFRKNLKTYNHIYKYYPDFLCKKESEKC | – | > 30 | 14 ± 5 | 260 ± 20
4 | PLA2 CM-II from N. kaouthia venom (enzyme) NLYQFKNMIQCTVPNRSWWDFADYGCYCGRGGSGTPVDDLDRCCQVHDNCYNEAEKISRCWPYFKTYSYECSQGTLTCKGDNDACAAAVCDCDRLAAICFAGAPYNNNNYNIDLKARCQ | – | 1 ± 0.03 | 3.2 ± 0.3 | 1200 ± 100
5 | PLA2 Vur-PL2 from V. ursinii venom (enzyme) NLYQFGKMIRYKTGKSALLSYSDYGCYCGWGGQGKPKDATDRCCFVHDCCYGRVNGCDPKLTIYSYSFENGDIVCGGDDSCKRAVCECDRVAAICFGENLNTYDKKYKNYPSSQCTETEQC | – | > 30 | 29 ± 2 | > 100000
